T1: extracellular domain (ECD) of human IGSF11 (VSIG3), HIS-tagged (human, UniProt Q5DX21 23-241, biotinylated in the ELISA of Example 4 (site not stated))
T1 construct: also called HIS-IGSF11; IGSF11-HIS; not shown: HIS6 tag
T1 sequence: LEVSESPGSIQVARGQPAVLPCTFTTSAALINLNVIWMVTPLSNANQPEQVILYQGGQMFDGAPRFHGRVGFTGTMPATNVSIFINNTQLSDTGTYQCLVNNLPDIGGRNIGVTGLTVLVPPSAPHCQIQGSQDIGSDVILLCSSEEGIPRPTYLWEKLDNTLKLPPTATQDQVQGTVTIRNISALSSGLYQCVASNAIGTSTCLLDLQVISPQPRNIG

T2: extracellular domain (ECD) of murine IGSF11, biotinylated (mouse, UniProt P0C673 23-240, biotinylated (site not stated))
T2 construct: also called Mouse IGSF11; murine IGSF11 protein
T2 sequence: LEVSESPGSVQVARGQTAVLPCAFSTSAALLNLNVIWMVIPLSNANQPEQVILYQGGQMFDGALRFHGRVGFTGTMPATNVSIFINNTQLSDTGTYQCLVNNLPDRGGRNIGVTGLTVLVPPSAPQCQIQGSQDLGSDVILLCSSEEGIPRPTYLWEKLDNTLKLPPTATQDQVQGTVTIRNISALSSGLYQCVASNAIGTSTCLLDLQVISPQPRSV

T3: extracellular domain (ECD) of human IGSF11 (VSIG3), biotinylated (human, UniProt Q5DX21 23-241, biotinylated (site not stated))
T3 construct: also called human IGSF11 protein
T3 sequence: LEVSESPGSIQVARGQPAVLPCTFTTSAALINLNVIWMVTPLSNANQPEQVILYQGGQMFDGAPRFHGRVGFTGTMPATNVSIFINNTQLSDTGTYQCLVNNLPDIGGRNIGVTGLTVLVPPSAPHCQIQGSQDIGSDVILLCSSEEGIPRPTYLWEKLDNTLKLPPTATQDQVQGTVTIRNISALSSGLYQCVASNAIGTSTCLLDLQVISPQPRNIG


Experiments:
[1] = target: T1, extracellular domain (ECD) of human …; assay: ELISA, coated IGSF11-HIS, IgG1 format; EC50 grade (* >1 nM, ** 0.05-1 nM, *** 0.02-0.05 nM, **** <0.02 nM)
[2] = target: T2, extracellular domain (ECD) of murine …; assay: ELISA, scFv; RFU grade (*** >1.0, ** 0.5-1.0, * 0.1-0.5)
[3] = target: T3, extracellular domain (ECD) of human …; assay: as above

EC50 [1] [pM]	relative fluorescent units (RFU), ELISA [2] [rfu]	relative fluorescent units (RFU), ELISA [3] [rfu]	Binder
< 20			A-010 (human IgG1 format) (antibody, V domains shown, human IgG1 format) VH: QVQLVQSGAEVKKPGASVKVSCKASGYTFTSYGISWVRQAPGQGLEWMGWISAYNGNTNYAQKLQGRVTMTTDTSTSTAYMELRSLRSDDTAVYYCARVPAWSGQFDYWGQGTLVTVSS VL: QSALTQPASVSGSPGQSITISCTGSSSDVGGYNYVSWYQQYPGKAPKLMIYDVRSRPSGVSNRFSGSKSGNTASLTISGLQAEDEADYYCTSYTSSNTLVIFGGGTKVTVL
	0.1 to 0.5	0.1 to 0.5	A-029 (scFv format) (scFv, V domains shown, scFv) VH: QVQLVQSGAEVKKPGSSVKVSCKASGGTFSSYAISWVRQAPGQGLEWMGGIIPIFGTANYAQKFQGRVTITADESTGTAYMELSSLRSEDTAVYYCARSYYYYYGMDVWGQGTTVTVSS VL: not shown
	> 1	> 1	A-026 (scFv format) (scFv, V domains shown, scFv) VH: QVQLQESGPGLVKPSQTLSLTCTVSGGSISSGGYYWSWIRQHPGKGLEWIGYIYYSGSTYYNPSLKSRVTISVDTSKNQFSLKLSSVTAADTAVYYCASWSLGTSNHGWFDPWGQGTLVTVSS VL: QSVLTQPPSASGTPGQRVTISCSGSSSNIGSNTVNWYQQLPGTAPKLLISDNNNRPSGVPDRFSGSKSGTSASLAITGLQAEDEADYYCQSYDSNLSGWVFGGGTKLTVL
	0.1 to 0.5	0.1 to 0.5	A-028 (scFv format) (scFv, V domains shown, scFv) VH: QVQLVQSGAEVKKPGSSVKVSCKASGGTFSSYAISWVRQAPGQGLEWMGGIIPIFGTANYAQKFQGRVTITADESTSTAYMELSSLRSEDTAVYYCARVGVEYQLLWYFDYWGQGTLVTVSS VL: DIQMTQSPSSLSASVGDRVTLTCRTSQTISNYLNWYQQKPGKAPKLLVYAASNLQSWVPSRFSGSGSGTDFTLTISSLQPEDFATYYCQQSYNASFGGGTKVEFK

Second part, the binder before the results:

Binder	EC50 [1] [pM]	relative fluorescent units (RFU), ELISA [2] [rfu]	relative fluorescent units (RFU), ELISA [3] [rfu]
A-023 (human IgG1 format) (antibody, V domains shown, human IgG1 format) VH: QVQLVQSGAEVKKPGSSVKVSCKASGGTFSSYAISWVRQAPGQGLEWMGGIIPIFGTANYAQKFQGRVTITADESTSTAYMELSSLRSEDTAVYYCARPKYSSGWFYYYGMDVWGQGTTVTVSS VL: QSVLTQPPSVSAAPGQKVTISCSGSSSNIGNNYVSWYQQLPGTAPKLLIYDNNKRPSGIPDRFSGSKSGTSATLGITGLQTGDEADYYCGTWDSSLSVVFGGGTKLTVL	50 to 1000		
A-025 (human IgG1 format) (antibody, V domains shown, human IgG1 format) VH: QVQLVQSGAEVKKPGSSVKVSCKASGGTFSSYAISWVRQAPGQGLEWMGGIIPIFGTANYAQKFQGRVTITADESTSTAYMELTSLRSEDTAVYYCARGGWLRQNWFDPWGQGTLVTVSS VL: SSELTQDPAVSVALGQTVRITCQGDSLRSYYASWYQQKPGQAPVLVIYGKNNRPSGIPDRFSGSSSGNTASLTITGAQAEDEADYYCNSRDSSGNHPRVFGGGTKLTVL	50 to 1000		
A-001 (human IgG1 format) (antibody, V domains shown, human IgG1 format) VH: EVQLVESGGGLVKPGGSLRLSCAASGFTFSSYSMNWVRQAPGKGLEWVSSISSSSSYIYYADSVKGRFTISRDNAKNSLYLQMNSLRAEDTAVYYCVRSIIVQALGITSVFDIWGQGTMVTVSS VL: AIRLTQSPSSLSASVGDRVTISCRASQIISNHLNWYQQKPGKAPKLLIYAASRLQTGVPSRFSGSGSETDYTLTISSLQPEDFATYYCQQSYSNPRTFGHGTKVEIK	< 20		
A-027 (scFv format) (scFv, V domains shown, scFv) VH: QVQLVQSGAEVKKPGSSVKVSCKASGGTFSSYAISWVRQAPGQGLEWMGGIIPIFGTANYAQKFQGRVTITADKSTSTAYMELSSLRSEDTAVYYCARARGSTWGYFDYWGQGTLVTVSS VL: EIVLTQSPASLSLSPGERVTLSCRASQSVSNYLAWYQQKPGQAPRLLIYDASNRATGIPARFSGSGSGTDFTLTISSLEPEDFAVYYCQQRDNWPLTFGGGTKVEIK		0.1 to 0.5	0.1 to 0.5
A-033 (human IgG1 format) (antibody, V domains shown, human IgG1 format) VH: QVQLVQSGAEVKKPGASVKVSCKASGYTFTSYGISWVRQAPGQGLEWMGWISAYNGNTNYAQKLQGRVTMTTDTSTSTAYMELRSLRSDDTAVYYCARDHSIVGATTFDYWGQGTLVTVSS VL: not shown	20 to 50		

— patent publication US20210061908A1 (IOMX THERAPEUTICS, published 2021)
